Four molecules from CN116836277A can be followed below.

B1: Anti-E2 7A4mut2 (antibody, V domains shown)
VH: QVRLQESGPSLVKPSQTLSLTCTISGFSISGNAITWVRQAPGEVPEWLGGVDNRGSAYYSPALRSRLSITRDTSKSQVSLSLYGVTVEDTAVYYCGRGVWGVDGAGYAHDYWGPGLLVTVST
VL: QAVVTQLSSVSGSLGQRVSLTCSGSSSNVGSHSVDWFQKLSESGLRIVIYGTRNRPSGVPDRFSGSKSGNTATLTITSLQTEDEADYYCATSDSTTMTYIFGDGTRLTALG
B2: Anti-E2 7A4mut4 (antibody, V domains shown)
VH: B1 VH with I29L
VL: B1 VL with I49L
B3: Anti-E2 7A4mut1 (antibody)
heavy: QVRLQESGPSLVKPSQTLSLTCTISGFSLSGNAITWVRQAPGEVPEWLGGVDNRGSAYYSPALRSRLSITRDTSKSQVSLSLYGVTVEDTAVYYCGRGVWGVDGAGYAHDYWGPGLLVTVSTASTTPPKVYPLTSCCGDTSSSIVTLGCLVSSYMPEPVTVTWNSGALTSGVHTFPAILQSSGLYSLSSVVTVPASTSGAQTFICNVAHPASSTKVDKRVGLSSDYSKCSKPPCVSRPSVFIFPPKPKDSLMITGTPEVTCVVVDVGQGDPEVQFSWFVDNVEVRTARTKPREEQFNSTFRVVSALPIQHDHWTGGKEFKCKVHSKGLPAPIVRTISRAKGQAREPQVYVLAPPQEELSKSTLSVTCLVTGFYPDYIAVEWQRARQPESEDKYGTTTSQLDADGSYFLYSRLRVDKSSWQRGDTYACVVMHEALHNHYTQKSISKPPGK
light: QAVVTQLSSVSGSLGQRVSLTCSGSSSNVGSHSVDWFQKLSESGLRIVIYGTRNRPSGVPDRFSGSKSGNTATLTITSLQTEDEADYYCATSDSTTMTYIFGDGTRLTALGQPKSAPSVTLFPPSTEELSTNKATVVCLINDFYPGSVNVVWKADGSTINQNVKTTQASKQSNSKYAASSYLTLTGSEWKSKSSYTCEVTHEGSTVTKTVKPSECS
B4: Anti-E2 7A4mut3 (antibody)
heavy: B3 heavy
light: B3 light with L20I

Numbering of substitutions follows the chain as printed.

One assay concerns the target E2-Albumin偶联物. The assay can be described thus: indirect ELISA, E2-Albumin coated 3 ug/ml, antibody 125 ng/ml.
As to B1, the OD450 is 2.25 OD450.

B2 gave an OD450 of 2.26 OD450.

As for B3, the OD450 came to 2.06 OD450.

Turning to B4, the OD450 was found to be 2.27 OD450.

The next assay has as its target E2-Albumin偶联物. The assay can be described thus: indirect ELISA, E2-Albumin coated 3 ug/ml, antibody 31.3 ng/ml. On the technique in general: ELISA stands for enzyme-linked immunosorbent assay.
Consider B1, for which the OD450 was determined as 1.69 OD450.

Turning to B2, the OD450 was 1.31 OD450.

In the case of B3, the OD450 stood at 0.94 OD450.

Turning to B4, the OD450 came to 1.6 OD450.

The target in the next assay is E2-Albumin偶联物. The experiment in a line: indirect ELISA, E2-Albumin coated 3 ug/ml, antibody 62.5 ng/ml.
B1 displayed an OD450 of 1.94 OD450.

The molecule B2 came in with an OD450 of 2.12 OD450.

With B3, the OD450 worked out at 1.52 OD450.

For B4, the OD450 worked out at 2.16 OD450.

The target in a further assay is E2-Albumin偶联物. The assay can be described thus: indirect ELISA, E2-Albumin coated 3 ug/ml, antibody 7.81 ng/ml.
In turn, B1 had an OD450 of 0.497 OD450.

With B2, the OD450 came to 0.461 OD450.

For the molecule B3, the OD450 came out at 0.22 OD450.

Regarding B4, the OD450 amounted to 0.508 OD450.

A further assay deals with E2-Albumin偶联物. The assay can be described thus: indirect ELISA, E2-Albumin coated 3 ug/ml, antibody 15.63 ng/ml.
B1 returned an OD450 of 0.953 OD450.

In turn, B2 displayed an OD450 of 0.806 OD450.

For the molecule B3, the OD450 was determined as 0.366 OD450.

As for B4, the OD450 was 0.979 OD450.

Another assay has as its target E2-Albumin偶联物. The assay can be described thus: indirect ELISA, E2-Albumin coated 3 ug/ml, antibody 0.00 ng/ml (blank).
B1 registered an OD450 of 0.065 OD450.

Molecule B2 displayed an OD450 of 0.047 OD450.

Regarding B3, the OD450 worked out at 0.01 OD450.

For the molecule B4, the OD450 was 0.023 OD450.

The next assay addresses E2-Albumin偶联物. The assay can be described thus: biosensor (AMC sensor), antibody immobilised at 5 ug/ml, E2-Albumin in gradient.
B1 yielded a Kd of 0.188 nM, an off-rate (koff) of 0.00032 s⁻¹ and an on-rate (kon) of 1.7e+06 M⁻¹ s⁻¹.

Turning to B2, the Kd came out at 0.214 nM, the dissociation rate constant (koff) was found to be 0.00044 s⁻¹ and the on-rate constant (kon) came to 2.06e+06 M⁻¹ s⁻¹.

The molecule B3 showed a Kd of 9.84 nM, a dissociation rate constant (koff) of 0.00022 s⁻¹ and a kon of 22400 M⁻¹ s⁻¹.

B4 had an equilibrium dissociation constant (Kd) of 0.234 nM, a dissociation rate constant (koff) of 0.00038 s⁻¹ and an association rate constant (kon) of 1.63e+06 M⁻¹ s⁻¹.

The term Kd denotes the constant that tells how readily two partners part at equilibrium. A lower Kd goes with higher affinity. A word on the koff: it is the first-order rate constant of dissociation. A lower koff goes with a long-lived complex. What is called kon is a measure of how fast the partners come together.
